# Literature values as cited in paper PMC8894873.
# Biological target: Glu66 (UniProt position 148, FTKKMEENAKK)
# Assay: stability (inferred; the article mentions only a pH dependence of stability)
substance,measurement,value
Staphylococcal nuclease V66E variant (Staphylococcus aureus; V66E),pKa,8.8
